Biological target: T1, Crp (CRP, cAMP receptor protein) (Escherichia coli (purified from strain SA500/pHA5)) (UniProt P0ACJ8)
T1 sequence: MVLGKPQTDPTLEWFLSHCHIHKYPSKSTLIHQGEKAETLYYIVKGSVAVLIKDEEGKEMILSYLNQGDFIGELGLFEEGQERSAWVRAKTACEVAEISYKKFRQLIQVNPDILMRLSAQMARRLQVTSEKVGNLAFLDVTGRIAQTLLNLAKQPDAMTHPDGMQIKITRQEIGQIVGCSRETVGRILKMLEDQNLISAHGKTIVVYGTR
Experiment: EMSA
Conditions: 10 mM Tris-HCl pH 7.5, 1 mM EDTA, 100 mM KCl, 1 mM DTT, BSA (printed 10 g/mL), 5% glycerol, 20 uM cAMP, room temperature 30 min; 6% native PAGE, 1x TAE, 4 C

| Sequence | binding |
| --- | --- |
| TGTTTAAAGTGAGTGTCATATCACGGTGATAACGCGAAACAGCTCACAAAAATACACGCTTACGGGGTCTTTGCAACACAAAATAGCGCCGTTTGGCAAACTGAAGGGTTTATTGCTGAATGCCTGCTCCCCTCTCGTTCGAGGGGAACAGAATGCGCTGCTTAGAGGATTTCCAGCAGTTCGACTTCAAACACCAGGGTGCTGAACG (double strand) [PcycA fragment 1 (208 bp)] | binds |
| CGTTCAGCACCCTGGTGTTTGAAGTCGAACTGCTGGAAATCCTCTAAGCAGCGCATTCTGTTCCCCTCGAACGAGAGGGGAGCAGGCATTCAGCAATAAACCCTTCAGTTTGCCAAACGGCGCTATTTTGTGTTGCAAAGACCCCGTA (double strand) [PcycA fragment 3 (148 bp, no predicted Crp site)] | no binding |

— paper PMC8948829, “The Escherichia coli Amino Acid Uptake Protein CycA: Regulation of Its Synthesis and Practical Application in L-Isoleucine Production” (Microorganisms, 2022)
